# Measurements as given in patent publication US20100184837A1.
# How the values were obtained:
# [1] = molecular target: natural HCV acceptors on human liver cancer cells Huh 7.5.1; assay: flow cytometry, binding to Huh 7.5.1 cells (FIG. 6), control protein
# [2] = molecular target: natural HCV acceptors on human liver cancer cells Huh 7.5.1; assay: flow cytometry, binding to Huh 7.5.1 cells (FIG. 6), with a single DNA aptamer present as competitor
# [3] = molecular target: natural HCV acceptors on human liver cancer cells Huh 7.5.1; assay: flow cytometry, binding to Huh 7.5.1 cells (FIG. 6), no aptamer
# [4] = molecular target: natural HCV acceptors on human liver cancer cells Huh 7.5.1; assay: flow cytometry, binding to Huh 7.5.1 cells (FIG. 6), with the thirteenth-round DNA aptamer library present as competitor
Substance,binding rate [1] [%],binding rate [2] [%],binding rate [3] [%],binding rate [4] [%]
protein GST,1,,,
GST-E2,,15.4,36.7,23.2
